Experimental data as given in paper PMC6293271, “Bactericidal/Permeability-Increasing Protein Is an Enhancer of Bacterial Lipoprotein Recognition” (Frontiers in Immunology, 2018).

Experiments:
[1] = system: HEK293T cells expressing TLR2 and CD14; assay: Stimulation of HEK293T cells transfected with human TLR2 and CD14, IL-8 ELISA; assay type: cell-based; conditions: HEK293T expressing TLR2 and CD14, (R)-Pam3CSK4 ± BPI, 24 h
Description: HEK293T cells were transfected using the calcium phosphate mediated method according to a published protocol ([45]). Transfections were performed using plasmid vectors for human TLR2 and human CD14 (both a kind gift of Carsten Kirschning, University of Duisburg-Essen, Germany) at concentrations of 0.4 and 0.05 μg/ml, respectively. A GFP encoding plasmid (0.4 μg/ml) was used as control. For stimulation, transfected HEK293T cells were cultured at 2 × 10^5 cells/ml in 96-well plates and stimulated with (R)-Pam3CSK4 ± BPI. After 24 h, supernatants were collected and analyzed for secretion of IL-8 by ELISA (DuoSet® ELISA human CXCL8/IL-8, R&D, Minneapolis, MN, USA).

[2] = system: PBMCs; assay: Stimulation of human PBMCs, cytokine ELISA of supernatants; assay type: cell-based; conditions: for TNFα secretion: 18 h
Description: After informed consent, blood was drawn from healthy male volunteers using heparinized blood collection tubes (Li-Heparin-Gel-Monovette, Sarstedt, Nümbrecht, Germany) and diluted in RPMI 1640 (Biochrom, Berlin, Germany) at a ratio of 1:1.5. The blood was centrifuged in leucosep tubes containing Ficoll® Paque plus (Oxford Immunotec, Abingdon, Great Britian) at 1,000 × g for 10 min. The interphase containing the leukocytes was collected and subsequently washed twice with RPMI 1640. The pellet was resuspended in AIM V® Medium (Thermo Fisher Scientific, Waltham, MA, USA), counted and cultivated in 96-well plates for 4 h (1 × 10^5/100 μl). Then cells were stimulated with the indicated compounds in the presence or absence of BPI. The supernatants were collected after 18 h for determination of cytokine concentration by ELISA according to the manufacturer's instructions (OptEIA^TM Human TNFα ELISA Set and OptEIA^TM Human IL6 ELISA, BD Biosciences, Heidelberg, Germany; DuoSet® ELISA human CXCL8/IL-8, R&D, Minneapolis, MN, USA).

B1: rBPI: recombinant human BPI (aa 32-487) with C-terminal FLAG Tag expressed in HEK293T cells (protein)
chain: VNPGVVVRISQKGLDYASQQGTAALQKELKRIKIPDYSDSFKIKHLGKGHYSFYSMDIREFQLPSSQISMVPNVGLKFSISNANIKISGKWKAQKRFLKMSGNFDLSIEGMSISADLKLGSNPTSGKPTITCSSCSSHINSVHVHISKSKVGWLIQLFHKKIESALRNKMNSQVCEKVTNSVSSELQPYFQTLPVMTKIDSVAGINYGLVAPPATTAETLDVQMKGEFYSENHHNPPPFAPPVMEFPAAHDRMVYLGLSDYFFNTAGLVYQEAGVLKMTLRDDMIPKESKFRLTTKFFGTFLPEVAKKFPNMKIQIHVSASTPPHLSVQPTGLTFYPAVDVQAFAVLPNSSLASLFLIGMHTTGSMEVSAESNRLVGELKLDRLLLELKHSNIGPFPVELLQDIMNYIVPILVLPRVNEKLQKGFPLPTPARVQLYNVVLQPHQNFLLFGADVVYK
modifications: labelled with NT647 (NHS labelling kit) in the MST experiments only; left off: HA signal peptide, N-terminal, state not stated | FLAG, C-terminal, state not stated
notes: recombinant human BPI (aa 32-487) with C-terminal FLAG Tag expressed in HEK293T cells
enhancement of immune stimulation of bLPs (IL-8) [1]: not sufficient to enhance
TNFα secretion ([2]; PBMCs stimulated with (R)-FSL-1, increasing rBPI concentration): gradually enhanced
TNFα secretion ([2]; PBMCs stimulated with (R)-Pam3CSK4, increasing rBPI concentration): gradually enhanced
TNFα, IL-6, and IL-8 secretion ([2]; PBMCs stimulated with lysate of S. pneumoniae D39Δcps, seven donors, BPI 500 nM): remarkable increase
TNFα, IL-6, and IL-8 secretion ([2]; PBMCs stimulated with lysates of S. aureus 113, BPI 500 nM): also increased
secretion of TNFα ([2]; PBMCs, BPI incubated with LTA SPΔlgt compared to LTA SPΔlgt alone): increased secretion of TNFα
